Reference: PMC8714817

How the values were obtained:
[1] = target: HomB, outer membrane protein of Helicobacter pylori (recombinant, C-terminal His-tag) (Helicobacter pylori strain J99); test: SAXS; ~2.5 mg/ml protein in 20 mM Tris-Cl pH 8, 200 mM NaCl, 5 mM BME; molecular weight from Porod volume, concentration-independent
[2] = target: HomB, outer membrane protein of Helicobacter pylori (recombinant, C-terminal His-tag) (Helicobacter pylori strain J99); test: SDS-PAGE of SEC fractions; monomer and dimer peak fractions of the size exclusion runs on SDS-PAGE with or without beta-mercaptoethanol
[3] = target: HomB, outer membrane protein of Helicobacter pylori (recombinant, C-terminal His-tag) (Helicobacter pylori strain J99); test: SEC; 1 mg protein on Superose 12, 50 mM Tris-Cl pH 8.0, 300 mM NaCl, 4 °C, 0.5 ml/min; alone or with detergents (LDAO, CHAPS, TWEEN 20) or 1 mM lipids (DMPC, DOPC); calibrated with molecular weight markers
[4] = target: HomA, outer membrane protein of Helicobacter pylori (recombinant, C-terminal His-tag) (Helicobacter pylori strain J99); test: SAXS; ~2.5 mg/ml protein in 20 mM Tris-Cl pH 8, 200 mM NaCl, 5 mM BME; molecular weight from Porod volume, concentration-independent
[5] = target: HomA, outer membrane protein of Helicobacter pylori (recombinant, C-terminal His-tag) (Helicobacter pylori strain J99); test: SDS-PAGE of SEC fractions; monomer and dimer peak fractions of the size exclusion runs on SDS-PAGE with or without beta-mercaptoethanol
[6] = target: HomA, outer membrane protein of Helicobacter pylori (recombinant, C-terminal His-tag) (Helicobacter pylori strain J99); test: SEC; 1 mg protein on Superose 12, 50 mM Tris-Cl pH 8.0, 300 mM NaCl, 4 °C, 0.5 ml/min; alone or with detergents (LDAO, CHAPS, TWEEN 20) or 1 mM lipids (DMPC, DOPC); calibrated with molecular weight markers

Measured: stoichiometry N

HomB, outer membrane protein of Helicobacter pylori (recombinant, C-terminal His-tag) (natural protein)
2: [1] | [2] | [3]

HomA, outer membrane protein of Helicobacter pylori (recombinant, C-terminal His-tag) (natural protein)
2: [4] | [5] | [6]
